Experimental findings from the Immune Epitope Database (IEDB) are described below.

Assay [1] has as its target HLA-A*25:01. Briefly: IEDB peptide-MHC binding, purified MHC/direct/fluorescence; filed as Kd, often an IC50 or EC50 that approximates it; ≥ and ≤ were set here for values at or beyond the usual limits of such assays. The settings on record: source organism: West Nile virus strain PTRoxo.
For assay [2], the target named is HLA-B*51:01. Described as above. The settings on record: source organism: West Nile virus.
Assay [3] deals with HLA-A*30:01. The assay is described as above. The settings on record: source organism: West Nile virus strain PTRoxo.
Assay [4] deals with HLA-B*58:01. The description is as above. The settings on record: source organism: West Nile virus strain PTRoxo.
Assay [5] concerns the target HLA-B*18:01. Described as above. The settings on record: source organism: West Nile virus strain PTRoxo.
Assay [6] concerns the target HLA-A*80:01. Described as above.
The target of assay [7] is HLA-B*15:01. The assay is described as above. The settings on record: source organism: West Nile virus strain PTRoxo.
The target of assay [8] is HLA-A*29:02. The assay is described as above. The settings on record: source organism: West Nile virus strain PTRoxo.
In assay [9] the target is HLA-B*57:01. The assay is described as above. The settings on record: source organism: West Nile virus strain PTRoxo.
Assay [10] concerns the target HLA-B*44:02. The description is as above. The settings on record: source organism: West Nile virus strain PTRoxo.
Assay [11] has as its target HLA-A*26:01. Briefly: IEDB peptide-MHC binding, purified MHC/competitive/fluorescence; filed as Kd, often an IC50 or EC50 that approximates it; ≥ and ≤ were set here for values at or beyond the usual limits of such assays.
Assay [12] has as its target HLA-C*15:02. The assay can be described thus: IEDB peptide-MHC binding, purified MHC/direct/fluorescence; filed as Kd, often an IC50 or EC50 that approximates it; ≥ and ≤ were set here for values at or beyond the usual limits of such assays. The settings on record: source organism: Methylibium petroleiphilum PM1.
The target of assay [13] is HLA-C*07:02. The description is as above. The settings on record: source organism: Methylibium petroleiphilum PM1.
Assay [14] concerns the target HLA-B*27:20. Briefly: IEDB peptide-MHC binding, purified MHC/competitive/fluorescence; filed as Kd, often an IC50 or EC50 that approximates it; ≥ and ≤ were set here for values at or beyond the usual limits of such assays.
The target in assay [15] is HLA-B*15:02. The assay is described as above. The settings on record: source organism: Methylibium petroleiphilum PM1.
For assay [16], the target named is HLA-B*40:13. The description is as above. The settings on record: source organism: Methylibium petroleiphilum PM1.
Assay [17] has as its target HLA-B*45:06. The assay is described as above.
Assay [18] deals with HLA-C*06:02. The assay is described as above. The settings on record: source organism: Methylibium petroleiphilum PM1.
Assay [19] addresses HLA-B*15:42. The description is as above.
The target in assay [20] is HLA-C*14:02. The assay is described as above. The settings on record: source organism: Methylibium petroleiphilum PM1.
In assay [21] the target is HLA-B*83:01. The description is as above.
The target of assay [22] is HLA-B*15:09. The description is as above. The settings on record: source organism: Human immunodeficiency virus 1.
Assay [23] deals with HLA-B*08:03. The assay is described as above. The settings on record: source organism: Human immunodeficiency virus 1.
For assay [24], the target named is HLA-A*26:03. The assay is described as above. The settings on record: source organism: Human immunodeficiency virus 1.
Assay [25] addresses HLA-A*01:01. The assay is described as above. The settings on record: source organism: Human immunodeficiency virus 1.
The target of assay [26] is HLA-A*26:02. The description is as above. The settings on record: source organism: Human immunodeficiency virus 1.
For assay [27], the target named is HLA-B*08:01. Described as above. The settings on record: source organism: Human immunodeficiency virus 1.
The target in assay [28] is HLA-B*18:01. The description is as above. The settings on record: source organism: Human immunodeficiency virus 1.
Assay [29] deals with HLA-B*15:01. Described as above. The settings on record: source organism: Human immunodeficiency virus 1.
In assay [30] the target is HLA-A*11:01. The assay is described as above. The settings on record: source organism: Human immunodeficiency virus 1.
Assay [31] has as its target HLA-B*40:02. The assay can be described thus: IEDB peptide-MHC binding, cellular MHC/competitive/fluorescence; ≥ and ≤ were set here for values at or beyond the usual limits of such assays. The settings on record: source organism: Homo sapiens.
Assay [32] deals with HLA-A*24:02. Briefly: IEDB peptide-MHC binding, purified MHC/competitive/fluorescence; filed as Kd, often an IC50 or EC50 that approximates it; ≥ and ≤ were set here for values at or beyond the usual limits of such assays. The settings on record: source organism: Hepacivirus hominis.
The target of assay [33] is HLA-C*04:01. Briefly: IEDB peptide-MHC binding, purified MHC/direct/fluorescence; filed as Kd, often an IC50 or EC50 that approximates it; ≥ and ≤ were set here for values at or beyond the usual limits of such assays. The settings on record: source organism: Japanese encephalitis virus.
The target of assay [34] is HLA-B*48:01. The description is as above. The settings on record: source organism: Burkholderia mallei.
The target in assay [35] is HLA-B*27:05. The description is as above. The settings on record: source organism: Burkholderia mallei.
The target of assay [36] is HLA-B*73:01. The assay is described as above. The settings on record: source organism: Burkholderia mallei ATCC 23344.
In assay [37] the target is HLA-C*06:02. The description is as above. The settings on record: source organism: human gammaherpesvirus 4.
Where [38] appears, read: source organism: West Nile virus.
The mark [39] stands for this setting: source organism: Methylibium petroleiphilum PM1.
The mark [40] stands for this setting: source organism: Hepacivirus hominis.
[41] abbreviates: source organism: human gammaherpesvirus 4.

A word on the Kd: it is the free concentration of one partner at which half of the binding sites on the other are occupied at equilibrium, for simple one-to-one binding. A lower Kd goes with tighter binding. For orientation: IC50 means the concentration needed to halve the response being measured. High values mean weaker potency in that assay, low ones greater potency in that assay.

Consider EIPDVLNSL, for which the Kd in assay [1] was 0.023 µM; in [2], ≥ 20 µM; in assay [3], ≥ 20 µM; in assay [4], ≥ 20 µM; in assay [5], ≥ 20 µM; in [6] (source organism: West Nile virus strain PTRoxo) it was ≥ 20 µM. Besides, the Kd in assay [7] is ≥ 20 µM; in [8], ≥ 20 µM; in [9] it was ≥ 20 µM; in [10], ≥ 20 µM; in assay [11] (setting [38]), 0.277 µM.
As for FQMGGIGPM, the Kd was 2.18 µM in [12]; 0.448 µM in assay [13]; 0.0003 µM in assay [14] (setting [39]); 0.0144 µM in [15]; 0.0088 µM in [16]; ≥ 5 µM in [17] (setting [39]). Besides, the Kd in assay [18] is 0.513 µM; in assay [19] (setting [39]), ≥ 5 µM; in [20], 0.0132 µM; in assay [21] (setting [39]), ≥ 5 µM.
For GTEEIKSLY, the Kd in [22] is ≥ 20 µM; in assay [23] it was ≥ 20 µM; in assay [11] (source organism: Human immunodeficiency virus 1), 1.57 µM; in assay [24], ≥ 20 µM; in assay [25], 0.0138 µM; in [26], 1.21 µM. Further, the Kd in assay [27] was ≥ 20 µM; in [28], 0.0777 µM; in [29], ≥ 20 µM; in [30], ≥ 20 µM.
Take KEQSPEPHL: the IC50 in assay [31] amounted to 1.9 µM.
On to LLPRRGPRL, for which the Kd in [32] was 0.09 µM; in assay [17] (setting [40]), ≥ 5 µM; in assay [19] (setting [40]), ≥ 5 µM; in assay [21] (setting [40]), ≥ 5 µM.
With QTDNQLAVF, the Kd in assay [6] (setting [38]) and in [33] was ≥ 20 µM each time.
As for RRHGMAWRQ, the Kd was ≥ 20 µM in assay [34], 0.213 µM in assay [35] and 12 µM in assay [36].
As to RRRKGWIPL, the Kd is ≥ 20 µM in assay [37]; 0.0002 µM in assay [14] (setting [41]); ≥ 5 µM in assay [17] (setting [41]); ≥ 5 µM in assay [19] (setting [41]); ≥ 5 µM in [21] (setting [41]).
